Measured values published in paper PMC7430652.

Molecular target: 39S large mitoribosome subunit (mtLSU) (human (endogenous in HEK293T and 143B))
Assay: co-sedimentation

B1: GTPBP5 (natural protein)
chain: MAPARCFSARLRTVFQGVGHWALSTWAGLKPSRLLPQRASPRLLSVGRADLAKHQELPGKKLLSEKKLKRYFVDYRRVLVCGGNGGAGASCFHSEPRKEFGGPDGGDGGNGGHVILRVDQQVKSLSSVLSRYQGFSGEDGGSKNCFGRSGAVLYIRVPVGTLVKEGGRVVADLSCVGDEYIAALGGAGGKGNRFFLANNNRAPVTCTPGQPGQQRVLHLELKTVAHAGMVGFPNAGKSSLLRAISNARPAVASYPFTTLKPHVGIVHYEGHLQIAVADIPGIIRGAHQNRGLGSAFLRHIERCRFLLFVVDLSQPEPWTQVDDLKYELEMYEKGLSARPHAIVANKIDLPEAQANLSQLRDHLGQEVIVLSALTGENLEQLLLHLKVLYDAYAEAELGQGRQPLRW
  percent of total GTPBP5 co-sedimenting: 60%
